In IntAct's records for PubMed 28486698:

B1: THAP domain-containing protein 1 (Homo sapiens), Q9NVV9 (parent)
chain: MVQSCSAYGCKNRYDKDKPVSFHKFPLTRPSLCKEWEAAVRRKNFKPTKYSSICSEHFTPDCFKRECNNKLLKENAVPTIFLCTEPHDKKEDLLEPQEQLPPPPLPPPVSQVDAAIGLLMPPLQTPVNLSVFCDHNYTVEDTMHQRKRIHQLEQQVEKLRKKLKTAQQRCRRQERQLEKLKEVVHFQKEKDDVSERGYVILPNDYFEIVEVPA

Variants of: B1
Conditions: with hcfc1_human HCFC1, P51610
Chain of hcfc1_human HCFC1, P51610 (P51610 whole entry): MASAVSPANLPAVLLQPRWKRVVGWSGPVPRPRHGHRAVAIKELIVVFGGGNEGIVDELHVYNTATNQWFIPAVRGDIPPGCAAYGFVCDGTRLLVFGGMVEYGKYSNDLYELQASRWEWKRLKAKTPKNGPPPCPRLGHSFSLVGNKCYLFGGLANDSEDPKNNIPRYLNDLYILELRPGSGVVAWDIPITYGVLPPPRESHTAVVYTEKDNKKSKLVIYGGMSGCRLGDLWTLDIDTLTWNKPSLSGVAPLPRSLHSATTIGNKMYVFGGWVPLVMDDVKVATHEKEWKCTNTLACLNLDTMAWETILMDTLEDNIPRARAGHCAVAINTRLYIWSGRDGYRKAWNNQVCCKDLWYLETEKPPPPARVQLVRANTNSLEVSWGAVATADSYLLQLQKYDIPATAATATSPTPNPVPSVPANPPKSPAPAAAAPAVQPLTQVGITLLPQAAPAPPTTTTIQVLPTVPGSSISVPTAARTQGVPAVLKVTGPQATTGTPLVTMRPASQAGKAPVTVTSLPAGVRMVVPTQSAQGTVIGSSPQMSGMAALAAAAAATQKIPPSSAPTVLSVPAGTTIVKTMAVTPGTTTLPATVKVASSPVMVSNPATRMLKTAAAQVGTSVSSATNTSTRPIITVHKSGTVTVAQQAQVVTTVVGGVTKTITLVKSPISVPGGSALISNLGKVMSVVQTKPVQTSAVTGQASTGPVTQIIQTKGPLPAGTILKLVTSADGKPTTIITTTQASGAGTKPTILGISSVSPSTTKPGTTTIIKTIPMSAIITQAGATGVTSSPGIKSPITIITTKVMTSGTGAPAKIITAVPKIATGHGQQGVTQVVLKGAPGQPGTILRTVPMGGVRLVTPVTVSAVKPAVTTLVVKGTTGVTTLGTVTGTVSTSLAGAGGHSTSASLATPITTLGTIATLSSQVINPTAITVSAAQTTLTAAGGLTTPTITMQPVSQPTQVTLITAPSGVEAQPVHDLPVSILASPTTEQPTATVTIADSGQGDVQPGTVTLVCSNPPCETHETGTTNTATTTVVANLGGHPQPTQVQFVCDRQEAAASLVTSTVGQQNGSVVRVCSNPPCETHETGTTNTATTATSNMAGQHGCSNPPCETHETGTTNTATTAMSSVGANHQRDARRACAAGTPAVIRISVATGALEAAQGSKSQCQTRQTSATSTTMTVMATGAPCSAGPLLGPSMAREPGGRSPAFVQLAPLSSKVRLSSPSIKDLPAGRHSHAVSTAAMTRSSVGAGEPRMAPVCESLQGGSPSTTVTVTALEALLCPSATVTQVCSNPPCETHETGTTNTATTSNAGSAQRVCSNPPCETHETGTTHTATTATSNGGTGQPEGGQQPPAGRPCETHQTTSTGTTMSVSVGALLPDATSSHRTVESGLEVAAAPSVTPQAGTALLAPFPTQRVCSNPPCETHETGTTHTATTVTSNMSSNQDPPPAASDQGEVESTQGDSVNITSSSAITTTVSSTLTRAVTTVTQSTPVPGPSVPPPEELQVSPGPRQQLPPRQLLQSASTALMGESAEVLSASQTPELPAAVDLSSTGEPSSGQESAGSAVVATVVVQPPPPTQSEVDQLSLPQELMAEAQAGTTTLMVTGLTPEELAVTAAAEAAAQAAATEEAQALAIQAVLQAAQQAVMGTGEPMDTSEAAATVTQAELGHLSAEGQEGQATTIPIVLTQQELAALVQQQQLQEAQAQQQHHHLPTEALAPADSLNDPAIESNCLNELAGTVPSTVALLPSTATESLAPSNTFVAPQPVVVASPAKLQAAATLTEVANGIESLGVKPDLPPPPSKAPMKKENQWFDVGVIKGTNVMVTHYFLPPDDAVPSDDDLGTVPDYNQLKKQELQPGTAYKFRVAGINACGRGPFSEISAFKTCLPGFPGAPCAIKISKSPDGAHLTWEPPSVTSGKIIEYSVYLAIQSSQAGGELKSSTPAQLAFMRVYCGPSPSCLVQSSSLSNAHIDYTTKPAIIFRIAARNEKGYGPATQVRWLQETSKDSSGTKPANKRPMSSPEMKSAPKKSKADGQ

Variant	effect of a mutation on the interaction
MVQSCSAYGCKNRYDKDKPVSFHKFPLTRPSLCKEWEAAVRRKNFKPTKYSSICSEHFTPDCFKRECNNKLLKENAVPTIFLCTEPHDKKEDLLEPQEQLPPPPLPPPVSQVDAAIGLLMPPLQTPVNLSVFCDHSYTVEDTMHQRKRIHQLEQQVEKLRKKLKTAQQRCRRQERQLEKLKEVVHFQKEKDDVSERGYVILPNDYFEIVEVPA [N136S]	disrupting interaction strength
MVQSCSAYGCKNRYDKDKPVSFHKFPLTRPSLCKEWEAAVRRKNFKPTKYSSICSEHFTPDCFKRECNNKLLKENAVPTIFLCTEPHDKKEDLLEPQEQLPPPPLPPPVSQVDAAIGLLMPPLQTPVNLSVFCDHKYTVEDTMHQRKRIHQLEQQVEKLRKKLKTAQQRCRRQERQLEKLKEVVHFQKEKDDVSERGYVILPNDYFEIVEVPA [N136K]	disrupting interaction strength
MVQSCSAYGCKNRYDKDKPVSFHKFPLTRPSLCKEWEAAVRRKNFKPTKYSSICSEHFTPDCFKRECNNKLLKENAVPTIFLCTEPHDKKEDLLEPQEQLPPPPLPPPVSQVDAAIGLLMPPLQTPVNLSVFCDHNCTVEDTMHQRKRIHQLEQQVEKLRKKLKTAQQRCRRQERQLEKLKEVVHFQKEKDDVSERGYVILPNDYFEIVEVPA [Y137C]	disrupting interaction strength

Variants of: B1
Conditions: with hcfc1_human HCFC1, P51610
Remark: another data set of the same source

Variant	effect of a mutation on the interaction
MVQSCSAYGCKNRYDKDKPVSFHKFPLTRPSLCKEWEAAVRRKNFKPTKYSSICSEHFTPDCFKRECNNKLLKENAVPTIFLCTEPHDKKEDLLEPQEQLPPPPLPPPVSQVDAAIGLLMPPLQTPVNLSVFCDHSYTVEDTMHQRKRIHQLEQQVEKLRKKLKTAQQRCRRQERQLEKLKEVVHFQKEKDDVSERGYVILPNDYFEIVEVPA [N136S]	decreasing interaction strength
